Reference: patent publication US20210130436A1

target: CD28 (human) (UniProt P10747); assay: cell-based or functional assay

Row | Substance | IL-2-luciferase RLU, Jurkat + K562/OKT3/PD-L1 aAPC, 50 nM [RLU] | IL-2 release, primary T cells; K562/OKT3 (No PD-L1); 1 nM | IL-2 release, primary T cells; K562/OKT3 (No PD-L1); 10 nM | IL-2 release, primary T cells; K562/OKT3 (No PD-L1); 100 nM | Fold Increase over WT CD80-IgV-Fc, same assay, 50 nM [fold] | IL-2-luciferase RLU, Jurkat + CHO/OKT3/PD-L1 aAPC, 0.6 nM [RLU] | IL-2-luciferase RLU, Jurkat + CHO/OKT3/PD-L1 aAPC, 1.9 nM [RLU] | IL-2-luciferase RLU, Jurkat + CHO/OKT3/PD-L1 aAPC, 5.6 nM [RLU] | IL-2-luciferase RLU, Jurkat + CHO/OKT3/PD-L1 aAPC, 16.7 nM [RLU] | IL-2-luciferase RLU, Jurkat + CHO/OKT3/PD-L1 aAPC, 50 nM [RLU]
1 | WT CD80-ECD-Fc (effector) (from UniProt P33681 35-242) (Fc fusion) | 3040 | – | – | – | – | – | – | – | – | –
2 | WT IgG1 Fc Control | – | 7080 | 6920 | 6260 | – | – | – | – | – | –
3 | variant CD80 IgV-Fc (inert) A26E/E35D/M43I/M47L/L85Q/K86E/R94W (Fc fusion) | 498 | – | – | – | 0.9 | – | – | – | – | –
4 | variant CD80 IgV-Fc (inert) A26E/E35D/M43T/M47L/L85Q/R94Q (Fc fusion) | 526 | – | – | – | 0.9 | – | – | – | – | –
5 | variant CD80 IgV-Fc (inert) A26E/Q33L/E35D/M47L (Fc fusion) | 476 | – | – | – | – | – | – | – | – | –
6 | variant CD80 IgV-Fc (inert) A26E/Q33L/E35D/M47L/L85Q (Fc fusion) | 416 | – | – | – | 0.7 | – | – | – | – | –
7 | variant CD80 IgV-Fc (inert) A26E/Q33R/E35D/M47L/L85Q (Fc fusion) | 500 | – | – | – | 0.9 | – | – | – | – | –
8 | variant CD80 IgV-Fc (inert) A26E/Q33R/E35D/M47L/L85Q/K86E (Fc fusion) | 569 | – | – | – | – | – | – | – | – | –
9 | variant CD80 IgV-Fc (inert) A71D/L72V/E95K (Fc fusion) | – | – | – | – | – | 524 | 530 | 617 | 641 | 755
10 | variant CD80 IgV-Fc (inert) E7D/E35D/M47I/L97Q (Fc fusion) | 1240 | – | – | – | 2.2 | – | – | – | – | –
11 | variant CD80 IgV-Fc (inert) E24D/Q33L/E35D/M47V/K54R/L85Q (Fc fusion) | 3240 | – | – | – | 5.7 | – | – | – | – | –
12 | variant CD80 IgV-Fc (inert) E35D/D46E/M47V/L97Q (Fc fusion) | 1090 | – | – | – | 1.9 | – | – | – | – | –
13 | variant CD80 IgV-Fc (inert) E35D/D46V/M47I/A71G/F92V (Fc fusion) | – | – | – | – | 4 | – | – | – | – | –
14 | variant CD80 IgV-Fc (inert) E35D/M47I/E77A/L85Q/R94W (Fc fusion) | 473 | – | – | – | – | – | – | – | – | –
15 | variant CD80 IgV-Fc (inert) E35D/M47I/K54R/L85E (Fc fusion) | 602 | – | – | – | 1.1 | – | – | – | – | –
16 | variant CD80 IgV-Fc (inert) E35D/M47L/A71G/L97Q (Fc fusion) | 2160 | – | – | – | 3.8 | – | – | – | – | –
17 | variant CD80 IgV-Fc (inert) E35D/M47L/L85Q (Fc fusion) | – | – | – | – | 5 | – | – | – | – | –
18 | variant CD80 IgV-Fc (inert) E35D/M47V/A71G/L85M/L97Q (Fc fusion) | 576 | – | – | – | – | – | – | – | – | –
19 | variant CD80 IgV-Fc (inert) E35D/M47V/T62A/A71G/V83A/Y87H/L97M (Fc fusion) | 438 | – | – | – | – | – | – | – | – | –
20 | variant CD80 IgV-Fc (inert) H18L/V22A/E35D/M47L/N48T/L85Q (Fc fusion) | 2650 | – | – | – | 4.7 | – | – | – | – | –
21 | variant CD80 IgV-Fc (inert) H18Y/A26E/Q33L/E35D/M47L/L85Q (Fc fusion) | 408 | – | – | – | 0.7 | – | – | – | – | –
22 | variant CD80 IgV-Fc (inert) H18Y/A26T/E35D/A71D/L85Q (Fc fusion) | – | – | – | – | – | 628 | 621 | 795 | 974 | 1160
23 | variant CD80 IgV-Fc (inert) H18Y/E35D/M47L (Fc fusion) | 2980 | – | – | – | 5.3 | – | – | – | – | –
24 | variant CD80 IgV-Fc (inert) H18Y/E35D/V68M/L97Q (Fc fusion) | 4340 | – | – | – | – | – | – | – | – | –
25 | variant CD80 IgV-Fc (inert) H18Y/Q33L/E35D/M47I (Fc fusion) | 486 | – | – | – | 0.9 | – | – | – | – | –
26 | variant CD80 IgV-Fc (inert) H18Y/V20A/Q33L/E35D/M47V/Y53F (Fc fusion) | 566 | – | – | – | – | – | – | – | – | –

Row | Substance | IL-2-luciferase RLU, Jurkat + K562/OKT3/PD-L1 aAPC, 50 nM [RLU] | IL-2 release, primary T cells; K562/OKT3 (No PD-L1); 1 nM | IL-2 release, primary T cells; K562/OKT3 (No PD-L1); 10 nM | IL-2 release, primary T cells; K562/OKT3 (No PD-L1); 100 nM | Fold Increase over WT CD80-IgV-Fc, same assay, 50 nM [fold] | IL-2-luciferase RLU, Jurkat + CHO/OKT3/PD-L1 aAPC, 0.6 nM [RLU] | IL-2-luciferase RLU, Jurkat + CHO/OKT3/PD-L1 aAPC, 1.9 nM [RLU] | IL-2-luciferase RLU, Jurkat + CHO/OKT3/PD-L1 aAPC, 5.6 nM [RLU] | IL-2-luciferase RLU, Jurkat + CHO/OKT3/PD-L1 aAPC, 16.7 nM [RLU] | IL-2-luciferase RLU, Jurkat + CHO/OKT3/PD-L1 aAPC, 50 nM [RLU]
27 | variant CD80 IgV-Fc (inert) H18Y/Y31H/E35D/M47V/A71G/L85Q (Fc fusion) | 455 | – | – | – | – | – | – | – | – | –
28 | variant CD80 IgV-Fc (inert) Q27H/E35D/M47L/L85Q/R94Q/E95K (Fc fusion) | 513 | – | – | – | 0.9 | – | – | – | – | –
29 | variant CD80 IgV-Fc (inert) Q27H/Q33L/E35D/M47V/N55D/L85Q/K89N (Fc fusion) | 551 | – | – | – | – | – | – | – | – | –
30 | variant CD80 IgV-Fc (inert) Q33K/E35D/D46V/L85Q (Fc fusion) | 504 | – | – | – | 0.9 | – | – | – | – | –
31 | variant CD80 IgV-Fc (inert) Q33K/E35D/M47V/K89E/K93R (Fc fusion) | 415 | – | – | – | 0.7 | – | – | – | – | –
32 | variant CD80 IgV-Fc (inert) Q33L/E35D/D46E/M47I (Fc fusion) | 554 | – | – | – | – | – | – | – | – | –
33 | variant CD80 IgV-Fc (inert) Q33L/E35D/M43I/L85Q/R94W (Fc fusion) | 553 | – | – | – | – | – | – | – | – | –
34 | variant CD80 IgV-Fc (inert) Q33L/E35D/M43V/M47I/A71G (Fc fusion) | 473 | – | – | – | – | – | – | – | – | –
35 | variant CD80 IgV-Fc (inert) Q33L/E35D/M47I (Fc fusion) | 423 | – | – | – | 0.7 | – | – | – | – | –
36 | variant CD80 IgV-Fc (inert) Q33L/E35D/M47I/L85Q (Fc fusion) | 432 | – | – | – | – | – | – | – | – | –
37 | variant CD80 IgV-Fc (inert) Q33L/E35D/M47I/T62N/L85Q (Fc fusion) | 463 | – | – | – | – | – | – | – | – | –
38 | variant CD80 IgV-Fc (inert) Q33L/E35D/M47L/A71G/F92S (Fc fusion) | 394 | – | – | – | 0.7 | – | – | – | – | –
39 | variant CD80 IgV-Fc (inert) Q33L/E35D/M47L/V68M/L85Q/E88D (Fc fusion) | 572 | – | – | – | – | – | – | – | – | –
40 | variant CD80 IgV-Fc (inert) Q33L/E35D/M47V (Fc fusion) | 393 | – | – | – | 0.7 | – | – | – | – | –
41 | variant CD80 IgV-Fc (inert) Q33L/E35D/M47V/L85Q (Fc fusion) | 556 | – | – | – | – | – | – | – | – | –
42 | variant CD80 IgV-Fc (inert) Q33L/E35D/M47V/T79A (Fc fusion) | 527 | – | – | – | 0.9 | – | – | – | – | –
43 | variant CD80 IgV-Fc (inert) Q33L/E35D/N48K/L85Q/L97Q (Fc fusion) | 358 | – | – | – | 0.6 | – | – | – | – | –
44 | variant CD80 IgV-Fc (inert) Q33L/E35D/T41S/M43I (Fc fusion) | 533 | – | – | – | 0.9 | – | – | – | – | –
45 | variant CD80 IgV-Fc (inert) Q33L/E35D/T41S/M47V (Fc fusion) | 481 | – | – | – | – | – | – | – | – | –
46 | variant CD80 IgV-Fc (inert) Q33R/E35D/D46E/M47I (Fc fusion) | 522 | – | – | – | 0.9 | – | – | – | – | –
47 | variant CD80 IgV-Fc (inert) Q33R/E35D/K37E/M47V/L85Q (Fc fusion) | 464 | – | – | – | – | – | – | – | – | –
48 | variant CD80 IgV-Fc (inert) S15P/Q33L/E35D/M47L/L85Q (Fc fusion) | 468 | – | – | – | – | – | – | – | – | –
49 | variant CD80 IgV-Fc (inert) V22A/E23D/Q33L/E35D/M47V (Fc fusion) | 390 | – | – | – | 0.7 | – | – | – | – | –
50 | variant CD80 IgV-Fc (inert) V22A/E35D/V68E/A71D (Fc fusion) | 538 | – | – | – | – | – | – | – | – | –
51 | variant CD80 IgV-Fc (inert) V22A/R29H/E35D/D46E/M47I (Fc fusion) | 3310 | – | – | – | 5.9 | – | – | – | – | –

same assay, conditions: not given

Row | Substance | IL-2-luciferase RLU, Jurkat + CHO/OKT3 aAPC (no PD-L1), 5.6 nM [RLU] | IL-2-luciferase RLU, Jurkat + CHO/OKT3 aAPC (no PD-L1), 16.7 nM [RLU] | IL-2-luciferase RLU, Jurkat + CHO/OKT3 aAPC (no PD-L1), 50 nM [RLU]
52 | variant CD80 IgV-Fc (inert) A71D/L72V/E95K (Fc fusion) | 466 | 547 | 644
53 | variant CD80 IgV-Fc (inert) H18Y/A26T/E35D/A71D/L85Q (Fc fusion) | – | 660 | 926
